From the DeepSol protein solubility set

Test: soluble on expression in E. coli; label from the status in PepcDB or PDB records

Sequence | soluble on expression in E. coli
MRGSHHHHHHGSIEGRMEKINYLLPEESAEMTLNQVKSLRQIEGRLRKLFSLKNYQEVMPPSFEYTQLYTALESNGKTFNQEKMFQFIKHEGQSITLRYDFTLPLVRLYSQIKDSTSARYSYFGKIFRKEKRHKGRSTENYQIGIELFGESADKSELEILSLALQVIEQLGLNKTVFEIGSAKFFQRLCQLADGSTELLTELLLKKDLSGLNAFIEKNNFSKELRGLLKEIFITNELSRLENLVTNTKDDVLISSFDQLKEFSEKLSMIKPIIIDLGMVPKMDYYTDLMFKAYSSAANQPILSGGRYDQLLSNFQEEAFAIGFCCHMDTILKALERQELEEDND | soluble
MRGSHHHHHHMSIITDVYAREVLDSRGNPTLEVEVYTESGAFGRGMVPSGASTGEHEAVELRDGDKSRYGGLGTQKAVDNVNNIIAEAIIGYDVRDQQAIDRAMIALDGTPNKGKLGANAILGVSIAVARAAADYLEIPLYSYLGGFNTKVLPTPMMNIINGGSHSDAPIAFQEFMILPVGAPTFKEALRYGAEIFHALKKILKSRGLETAVGDEGGFAPRFEGTEDGVETILAAIEAAGYVPGKDVFLGFDCASSEFYDKERKVYDYTKFEGEGAAVRTSAEQIDYLEELVNKYPIITIEDGMDENDWDGWKALTERLGKKVQLVGDDFFVTNTDYLARGIQEGAANSILIKVNQIGTLTETFEAIEMAKEAGYTAVVSHRSGETEDSTIADIAVATNAGQIKTGSLSRTDRIAKYNQLLRIEDQLGEVAEYRGLKSFYNLKK | soluble
MRGSHHHHHHTDPALRACELLGMSANVPTDICFSFTGLVQRGGGTGPHKDGWGITFYEGKGCRTFKDPQPSFNSPIAKLVQDYPIKSCSVVAHIRQANRGEVALENTHPFTRELWGRNWTYAHNGQLTGYKSLETGNFRPVGETDSEKAFCWLLHKLTQRYPRTPGNMAAVFKYIASLADELRQKGVFNMLLSDGRYVMAYCSTNLHWITRRAPFGVATLLDQDVEIDFSSQTTPNDVVTVIATQPLTGNETWQKIMPGEWRLFCLGERVVGLCGR | soluble
MRGSHHHHHHTDPALRAIVISRHVAIPDGELEITAIRAQGAGGQHVNKTSTAIHLRFDIRASSLPEYYKERLLAASHHLISSDGVIVIKAQEYRSQELNREAALARLVAMIKELTTEKKARRPTRPTRASKERRLASKAQKSSVKAMRGKVRSGREGLCGR | soluble
MRGSTRDQNGTWEMESNENFEGYMKALDIDFATRKIAVRLTQTKVIDQDGDNFKTKTTSTFRNYDVDFTVGVEFDEYTKSLDNRHVKALVTWEGDVLVCVQKGEKENRGWKQWIEGDKLYLELTCGDQVCRQVFKKKLVPR | soluble
MRHDGRQHDELRPITFDLDFISHPEGSVLITAGNTKVICNASVEDRVPPFLRGGGKGWITAEYSMLPQATNQQTIQESSKGKISGRTMEIQRLIGRALRAVVDLEKLGERTIWIDCDVIQADGGTRTASITGAFLAMAIAIGKLIKAGTIKTNPITDFLAAISVGIDKEQGILLDLNYEEDSSAEVDMNVIMTGSGRFVELQGTGEEATFSREDLNGLLGLAEKGIQELIDKQKEVLGDSLPELK | soluble
MRHNIKFKSKGTLKIRNTAQISLWKKCSDSMIADQTYLFINRVQDRRFDEESLRILELSLVAMNVKSFLEVRSRLRDFMRSESVVIFGELTGESMVAKLSVLEFFARAFALLGDMESCLAMRYEALNLRQLKSPSCLWLGVSHSEWTKFAVQSMENGFPSIAGKASENALLSLKKDSLIEPKSEDNSDILDAAEKVRRLRDSAASLTSSHSGIFIYIVSSLKFAVCNRLLTTF | soluble
MRHRGGRGFRGWWLASTILLLVAEKPSHGYELAERLAEFGIEIPGIGHMGNIYRVLADLEESGFLSTEWDTTVSPPRKIYRITPQGKLYLREILRSLEDMKRRIETLEERIKRVLQEE | soluble
MRIEEDLKLGFKDVLIRPKRSTLKSRSDVELERQFTFKHSGQSWSGVPIIAANMDTVGTFSMASALASFDILTAVHKHYSVEEWQAFINNSSADVLKHVMVSTGTSDADFEKTKQILDLNPALNFVCIDVANGYSEHFVQFVAKAREAWPTKTICAGNVVTGEMCEELILSGADIVKVGIGPGSVCTTRVKTGVGYPQLSAVIECADAAHGLGGMIVSDGGCTTPGDVAKAFGGGADFVMLGGMLAGHEESGGRIVEENGEKFMLFYGMSSESAMKRHVGGVAEYRAAEGKTVKLPLRGPVENTARDILGGLRSACTYVGASRLKELTKRTTFIRVQEQENRIFNNL | soluble
MRIHAFHRLYQYRQSISTKPFNARGCKVQRCPFCQVSEQHCLCELQPDIDSNVACMLIVSENEVFKPSNTGRLIADTVKETYVYQWNRTEPSQEMLDLLSNEDYLPVIVFPADYVDQPERLLDGLHTEHLHRTDGNSKKWLLIFIDGSWREARKIFRRSEFLQSLPVLSIEPECLSEYIMRRSENEQHLSTAEVATLVLKQAGENKASECLQLWFEAFRETYMLTKTRVKNDPNRPHLKRFKEWLKTESLEHHHHHH | not soluble
MRILFIGDVVGSPGRDMVKEYVPKLKTKYKPHFTIINGENAAHGKGLTEKIYHSLIQSGADAITMGNHTWDKKEIFDFIDDVPNLVRPANFPEGTPGKGITYVKANGKELAVINLQGRTFLPPLDDPFLKADELSPEAAKRTPYIFIDFHAEATSEKLALGWYTDGRASAVVGTHTHVQTADNRILPKGTAYITDVGMTGPYDGILGMDRETIIKRFKTNLPVRFTVAEGKTTLSGVVIDIDDQTKKAVKIERILINDDHMFFE | soluble
MRILGEKVRQFRKRKGMSQKELADGICTQATISLIEKKSKIPSMKIMMKICNRLGIRLSEVIIENDDQLYRTFKKIDTLIRHTQLEEAQDVFQHIRPKQLRSNTDKKQYYYYEGYLQLVLNDNADEAIFNFGMLLNQFVKSSHDMFAILATLGTGLAYERKQAYDKAEIFVKQAVATLHTMDAQAMPMGDDDYLQNEILIYASAAQLYAKINFPEEALELIDLALKKAQESQSLYLLDRLYAQKAANEVVLNNVQSAHDHYYVAYALSLVTHNSSLTEKITKEMAEYHIAPLQVANDA | not soluble
MRILLIEDDMLIGDGIKTGLSKMGFSVDWFTQGRQGKEALYSAPYDAVILDLTLPGMDGRDILREWREKGQREPVLILTARDALAERVEGLRLGADDYLCKPFALIEVAARLEALMRRTNGQASNELRHGNVMLDPGKRIATLAGEPLTLKPKEFALLELLMRNAGRVLSRKLIEEKLYTWDEEVTSNAVEVHVHHLRRKLGSDFIRTVHGIGYTLGEK | soluble
MRILVSNDDGIFSPGIKALGLAMRALGEVFVVAPDMEQSAVGHGITVRRPLRFKHTQSAGFGEIPAYRVDGTPADCVVLGVHLLGRPDLVVSGINLGVNLGLDLTHSGTVAAALEGASLGIPSIAFSLDTSGEVLDFQEAARWALAIARAVGERGLPPGVLLNVNFPASRPKGLLVTRLSTHRFEDQVVERLDPEGKPYYWIAGTPAGEEEEGTDLWAVRRGYVSVTPVSLDLTAHGFLEALSGLLEGVAP | soluble
MRIQFEIKESLINILDQLMHSDFWATEIKEDESGKKIIKIKDLAYNLEAVAEVMGNEIFIRTALSKYTYRIYEVKGECWCEYVGAYRGFLEQKLLPIITPKENLLECEVLDSSILGGKQKTLREYAEDNLKLKKFREQNFGNNGFSKADHPRRVYDEFIKEDFIPEDKKGHSLNITKSAN | not soluble
MRIRLFAFCLLLGGCQSQLPPLPDWQSPEGRDDPQTGRIVELRSGVTLSPQQLVARLAAAPRVIVGEKHDNPDHHAVELWLAQALGEYRAQGSLLLEMLDPGQQPRVDAVRAQLGNGKPVANLEEALDWQKGWDWTQYGPLVSWAVAQPAPLLAANLQRSEIMRIYRERPPLPGTASRRDSVRLPLLAQIRESHCGMLPDDQLPAMLAVQQQRDRRMAERLRDAPRPAMLVAGSFHARRDLGVPVHLRDLGAEKGTQVLMLVEAGQAVTTREADYAWYTPAQPDKDYCAEMKKARLEHHHHHH | not soluble
MRISLKQLNVFTVIAQEKTMTKAAERLYITKPAVSLSLSELEKNLGYKVFDRVNNRLVLNSEGRQLLPLADELLERAEVIEHQFATDSQLTGSLNIGASDTIGNHIAPVLLSKFQQQYPCDIQQLFISNTAQIINRLLEFQLDIGLVEGKAHHPKLNMIEWRRDDMYLVCSPSHPLATKAQVTLDDLEHSTWLLREEGSGSREYFINHIAANLNDWHESLQLHTTEAIINCCAENMGLACLSQLAAQNAINDGRLVKLAYNKTLARQYWLLVHKEKYQTPLLQYFMNFIQQK | not soluble
MRIVEEMVGKEVLDSSAKVIGKVKDVEVDIESQAIESLVLGKGGISEGLGLSKGETIVPYEMVKKIGDKILLKGPEE | not soluble
MRIVVTRPQRSGERTAAKLEALGHAPVLLPLFHPIHHGERATSALSDPAGAIAVTSAEALRALATCEEQLAPYLSKPLFAVGGATAEAAQETGFEQIFTASGDALGLTVLVKQHRAFLTEEEPLLYLAGRPRGSVFEEGLAAAGIPFRTVDCYEMLPSDISENTLETTLLDTTADMVLLYSSEAARAFFHHVSADKYVTALAATKFICISRNVLFLVPEIFRANAKAAEEPSEAAMFELLHHNSGTLEHHHHHH | soluble
MRKAAVIGGSLGGLFAANLLLRAGWDVHVHERVHDELDGRGAGIVTHPELLDVLRRIGVAPTESIGIEVARRVTLDLDGSVLASRALPQLLTAWGRLFSILRTRFPAERYHRGQALESLEQDERRALLRFADGARAEVDLVVAADGLRSTLRQALLPQARPAYAGYVAWRGLVDEASLSERTRRELCPYFAFGLPAHEQMIAYPVAGTGSGAQDAARRFNFVWYRPADEHTTFRDMVTDAQGQAWMDGIPPPLIRPEIVAQARQAAAQVLAPQFGEVVAKTANLFFQPIFDLESPRLALGRVALLGDAAFVARPHCGMGVTKAAGDARALAYALAGTPDIGAALQAYEDERLPFGKFIVGHARDLGRYMQAQLRDDAEREMAERYRTPEAIMRETAVAPAWRLEHHHHHH | not soluble
MRKEKIRLEYMLKAGSGNIVWSIISTPSGLETWFADKVIFKDKVFTFYWGKTETRQAEVTNFRVNSFIRFRWLDDEDPKAYFELKMVYNELTSDYMLEVIDWAAPDEVEDTKELWDSEIEKLKRVSGLLEHHHHHH | soluble
MRKIIHVDMDCFFAAVEMRDNPALRDIPIAIGGSRERRGVISTANYPARKFGVRSAMPTGMALKLCPHLTLLPGRFDAYKEASNHIREIFSRYTSRIEPLSLDEAYLDVTDSVHCHGSATLIAQEIRQTIFNELQLTASAGVAPVKFLAKIASDMNKPNGQFVITPAEVPAFLQTLPLAKIPGVGKVSAAKLEAMGLRTCGDVQKCDLVMLLKRFGKFGRILWERSQGIDERDVNSERLRKSVGVERTMAEDIHHWSECEAIIERLYPELERRLAKVKPDLLIARQGVKLKFDDFQQTTQEHVWPRLNKADLIATARKTWDERRGGRGVRLVGLHVTLLDPQMERQLVLGL | soluble
MRKIVLFGDSITAGYLDEAVSPVLVDLVKRDIAAMGLEEVAVINAGMPGDTTEDGLKRLNKEVLIEKPDEVVIFFGANDASLDRNITVATFRENLETMIHEIGSEKVILITPPYADSGRRPERPQTRIKELVKVAQEVGAAHNLPVIDLYKAMTVYPGTDEFLQADGLHFSQVGYELLGALIVREIKGRLKPKQA | soluble
MRKLWVAFFASLVLAMPSWVSARSHAGGGADVHLPVGHMWKHEGLDEQKWMEMVQKYTPEQEEEWKKVLDERNALRQQLNDENVKQAIKEKCKKMKKEREAALDRLIDQLVDKKITKEQFKKEWKQLHKKKQWMTKEEKQQLHLLHEQTRQAMENNDQEAMKKLLPQWLDHMKKKNERLAKWLQEVKQG | not soluble
